# Results: paper PMC3047612 (The Journal of General Physiology, 2011)
# B1: GST N1–135 (domain or fragment, human, UniProt Q12809 1-135, looked up)
# chain: MPVRRGHVAPQNTFLDTIIRKFEGQSRKFIIANARVENCAVIYCNDGFCELCGYSRAEVMQRPCTCDFLHGPRTQRRAAAQIAQALLGAEERKVEIAFYRKDGSCFLCLVDVVPVKNEDGAVIMFILNFEVVMEK
# Biological target: H6 hERG 666–872 Flag (human, UniProt Q12809 666-872)
# Test: pull-down
# H6 hERG 666–872 Flag, sequence (Q12809 666-872): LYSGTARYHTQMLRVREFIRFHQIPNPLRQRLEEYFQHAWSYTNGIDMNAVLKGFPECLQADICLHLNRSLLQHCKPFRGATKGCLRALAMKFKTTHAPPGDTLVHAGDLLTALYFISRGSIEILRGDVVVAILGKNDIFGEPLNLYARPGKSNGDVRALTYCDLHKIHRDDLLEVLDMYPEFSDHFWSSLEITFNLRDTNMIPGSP
binder,measurement,value
B1,binding result,binds
